Assay results: patent US9994616B2, “c-Met protein agonist” (The University of Tokyo, priority 2013, dated 2018)
Where two headings read alike, the source gives them in different places. One block for each molecule: values may come before it. Where a SMILES comes first, the peptide text is derived from it. Bridges are numbered along the chain shown (N, C = ends). Roman numbers before positions name the chains, in order. Where no end group is shown, it is not given here. [ ]: non-standard residue; d: D form. NMeW = CN[C@@H](Cc1c[nH]c2ccccc12)C(=O)O; NMeH = CN[C@@H](Cc1c[nH]cn1)C(=O)O; NMeF = CN[C@@H](Cc1ccccc1)C(=O)O; NMeE = CN[C@@H](CCC(=O)O)C(=O)O; NMeQ = CN[C@@H](CCC(N)=O)C(=O)O; NMeD = CN[C@@H](CC(=O)O)C(=O)O; NMeN = CN[C@@H](CC(N)=O)C(=O)O; NMeL = CN[C@@H](CC(C)C)C(=O)O; NMeV = CN[C@H](C(=O)O)C(C)C; βAla = NCCC(=O)O

Legend:
c-Met-Fc = c-Met-Fc (Homo sapiens, UniProt P08581); assay: Binding ability by surface plasmon resonance (SPR, Biacore); details: for kon: read-out: ka
Method: Binding ability of the thioether macrocyclic peptide was evaluated by SPR measurement using Biacore (GE Healthcare).
As a sensor chip, Sensor Chip CM5 was used and an anti-IgG antibody was immobilized on a measurement lane and a control lane by using Human Antibody Capture Kit.
On the measurement lane was immobilized c-Met-Fc, while on the control lane was immobilized Fc protein.
As a running buffer, HBS-EP+ buffer containing 0.1% DMSO was used and a dissociation constant of the thioether macrocyclic peptide was calculated at 5 different concentrations by using the single-kinetics method.

c-Met = target: T1, c-Met (Homo sapiens, UniProt P08581); assay: Activity of dimeric peptide by ELISA (c-Met phosphorylation level in EHMES-1 cells); type: cell-based; details: for Activity (c-Met phosphorylation level by ELISA): Table 12, EHMES-1 cells, 10 minutes stimulation; for c-Met phosphorylation: Table 13
T1 construct: endogenous in cells; host or cells: EHMES-1 (human mesothelioma)
Method: Each dimeric peptide was added to human EHMES-1 cells and the mixture was incubated for 10 minutes to stimulate the cells.
As a control experiment, a recombinant human HGF protein was added and the mixture was incubated for 10 minutes to stimulate cells.
A phosphorylation level of c-Met was quantitatively analyzed using ELISA.

[1] = Stability of thioether macrocyclic peptide in human serum pool (LC-MS); type: in vitro ADME; details: 37° C.; for remaining at 1 h, 1 μM: Table 8; for Stability in human serum (undegraded portion/time): Table 10, 2 h
Method: A DMSO solution of the thioether macrocyclic peptide to be evaluated was dissolved in a human serum pool to give a concentration of 1 μM. The human serum pool containing the thioether macrocyclic peptide thus prepared was incubated at 37° C.
After an elapse of the evaluation time, the human serum pool containing the thioether macrocyclic peptide was placed on ice and a peptide serving as an internal standard was added and mixed to give a concentration of 1 μM. The resulting mixture was added to a solid-phase extraction column (Hyper Sep SPE column, Thermo Scientific), washed with a 5% aqueous acetonitrile solution containing 0.1% TFA, and then purified by eluting with a 70% aqueous acetonitrile solution containing 0.1% TFA.
The molecular weight of the purified product was analyzed using LC-MS and the cleavage site in the serum was identified. In addition, the thioether macrocyclic peptide which had remained without being cleaved was quantitatively determined by comparing an amount relative to the internal standard at every incubation time.

[2] = Table 11, monomer and dimeric peptides

Chain of c-Met-Fc (P08581 with tags, fused parts or gaps limits assumed): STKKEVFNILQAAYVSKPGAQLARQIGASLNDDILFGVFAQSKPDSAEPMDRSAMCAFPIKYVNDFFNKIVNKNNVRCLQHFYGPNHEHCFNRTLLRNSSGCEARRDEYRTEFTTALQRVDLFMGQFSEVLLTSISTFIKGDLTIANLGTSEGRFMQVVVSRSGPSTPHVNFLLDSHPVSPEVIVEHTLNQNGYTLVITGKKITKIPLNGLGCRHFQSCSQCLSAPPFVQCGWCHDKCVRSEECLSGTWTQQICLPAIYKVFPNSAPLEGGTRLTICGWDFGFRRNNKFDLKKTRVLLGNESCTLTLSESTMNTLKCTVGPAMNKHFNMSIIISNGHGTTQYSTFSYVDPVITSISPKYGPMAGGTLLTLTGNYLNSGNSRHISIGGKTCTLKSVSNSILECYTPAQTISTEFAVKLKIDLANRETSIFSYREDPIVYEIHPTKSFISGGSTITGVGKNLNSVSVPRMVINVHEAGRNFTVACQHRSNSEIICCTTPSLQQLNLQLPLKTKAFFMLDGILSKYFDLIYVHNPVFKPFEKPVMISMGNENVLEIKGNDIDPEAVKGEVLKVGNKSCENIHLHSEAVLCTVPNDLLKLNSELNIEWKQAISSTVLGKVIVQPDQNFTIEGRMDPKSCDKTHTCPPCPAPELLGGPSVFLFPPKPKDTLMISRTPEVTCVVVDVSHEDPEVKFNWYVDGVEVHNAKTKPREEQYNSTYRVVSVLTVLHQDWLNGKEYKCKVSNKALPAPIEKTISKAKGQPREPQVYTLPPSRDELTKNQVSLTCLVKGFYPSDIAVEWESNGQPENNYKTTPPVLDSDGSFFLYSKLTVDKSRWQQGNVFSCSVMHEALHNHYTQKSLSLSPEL
Chain of c-Met-Fc (P08581 25-307 limits assumed): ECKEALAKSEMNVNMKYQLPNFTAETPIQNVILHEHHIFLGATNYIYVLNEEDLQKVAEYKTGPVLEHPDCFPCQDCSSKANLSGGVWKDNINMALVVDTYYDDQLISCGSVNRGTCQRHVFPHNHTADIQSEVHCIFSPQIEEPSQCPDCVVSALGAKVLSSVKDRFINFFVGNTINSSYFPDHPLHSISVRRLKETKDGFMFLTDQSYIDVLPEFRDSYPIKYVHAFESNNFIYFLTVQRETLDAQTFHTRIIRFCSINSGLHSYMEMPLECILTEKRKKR
T1 sequence (P08581 25-1390): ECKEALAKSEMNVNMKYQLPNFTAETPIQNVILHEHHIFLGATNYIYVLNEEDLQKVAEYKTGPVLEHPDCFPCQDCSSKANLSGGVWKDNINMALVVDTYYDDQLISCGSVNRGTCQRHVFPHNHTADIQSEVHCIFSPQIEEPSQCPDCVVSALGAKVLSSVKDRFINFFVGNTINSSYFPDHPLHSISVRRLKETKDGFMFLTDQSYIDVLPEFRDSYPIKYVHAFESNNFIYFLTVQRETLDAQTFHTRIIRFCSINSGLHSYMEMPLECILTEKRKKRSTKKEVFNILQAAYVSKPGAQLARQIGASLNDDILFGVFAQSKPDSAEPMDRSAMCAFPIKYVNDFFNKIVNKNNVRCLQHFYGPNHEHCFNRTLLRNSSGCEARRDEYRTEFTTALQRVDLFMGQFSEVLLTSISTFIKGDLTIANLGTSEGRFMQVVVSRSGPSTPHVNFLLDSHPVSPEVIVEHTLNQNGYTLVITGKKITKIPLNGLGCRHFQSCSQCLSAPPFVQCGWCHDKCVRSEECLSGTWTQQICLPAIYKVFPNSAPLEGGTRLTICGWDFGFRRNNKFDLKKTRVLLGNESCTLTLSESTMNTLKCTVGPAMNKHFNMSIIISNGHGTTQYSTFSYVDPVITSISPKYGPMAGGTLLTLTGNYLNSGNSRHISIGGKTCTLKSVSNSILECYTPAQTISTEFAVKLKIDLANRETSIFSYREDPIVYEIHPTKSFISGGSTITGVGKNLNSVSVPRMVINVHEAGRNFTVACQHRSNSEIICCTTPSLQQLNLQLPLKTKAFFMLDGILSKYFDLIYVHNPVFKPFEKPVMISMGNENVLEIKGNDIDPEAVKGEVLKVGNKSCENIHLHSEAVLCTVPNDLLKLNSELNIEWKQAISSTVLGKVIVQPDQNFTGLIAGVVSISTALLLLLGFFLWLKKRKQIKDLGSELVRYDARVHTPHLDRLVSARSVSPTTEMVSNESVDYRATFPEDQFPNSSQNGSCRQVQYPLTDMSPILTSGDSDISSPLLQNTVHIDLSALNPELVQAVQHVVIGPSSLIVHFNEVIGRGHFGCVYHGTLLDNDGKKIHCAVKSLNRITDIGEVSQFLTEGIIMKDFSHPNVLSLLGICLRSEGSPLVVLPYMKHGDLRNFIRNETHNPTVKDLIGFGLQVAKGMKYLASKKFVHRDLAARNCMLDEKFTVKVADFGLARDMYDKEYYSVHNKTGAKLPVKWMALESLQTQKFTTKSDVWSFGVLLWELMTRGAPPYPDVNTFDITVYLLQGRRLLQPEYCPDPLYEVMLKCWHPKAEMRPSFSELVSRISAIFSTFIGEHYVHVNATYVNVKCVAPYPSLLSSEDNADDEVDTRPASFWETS

Molecule: D5-4 Bis-MAL-PEG3: dimeric peptide: two D5-4 macrocycles linked through C-terminal Cys by Bis-MAL-PEG3 linker (peptide 1 {CH2CO}-[dY]WYYAWDQTYKAFPCG; peptide 2 {CH2CO}-[dY]WYYAWDQTYKAFPCG; thioether I:N-I:15, II:N-II:15; not fully specified (C-terminus); also: dimer: two chains joined by Bis-MAL-PEG3 through an added C-terminal Cys not in the letters)
ka (c-Met-Fc; [2]): 0.12 10^6 M^−1s^−1
kd (c-Met-Fc; [2]): 0.054 10^−2 s^−1
Activity (c-Met phosphorylation level by ELISA) (c-Met): High
c-Met phosphorylation (c-Met): Promote

Molecule: CC(C)C[C@@H]1NC(=O)[C@H](CC(N)=O)NC(=O)[C@H](Cc2c[nH]c3ccccc23)NC(=O)[C@H](C(C)C)NC(=O)[C@H](CCC(=O)O)NC(=O)[C@H](Cc2c[nH]cn2)NC(=O)[C@H]([C@@H](C)O)NC(=O)[C@H](CCCNC(=N)N)NC(=O)[C@H](CCCNC(=N)N)NC(=O)[C@H](CC(N)=O)NC(=O)[C@H](Cc2ccccc2)NC(=O)[C@H](CCC(N)=O)NC(=O)[C@H](CCCNC(=N)N)NC(=O)[C@@H](Cc2ccc(O)cc2)NC(=O)CSC[C@@H](C(=O)NCC(N)=O)NC(=O)[C@H](CC(=O)O)NC1=O [Peptide D4-3] ({CH2CO}-[dY]RQFNRRTHEVWNLDCG-NH2; thioether N-16; N-terminus and C-terminus assumed)
kon (c-Met-Fc; Table 8, c-Met-Fc): 1.3e+06 M⁻¹ s⁻¹
kon (c-Met-Fc; Table 10, c-Met-Fc): 2.4e+06 M⁻¹ s⁻¹
remaining at 1 h, 1 μM ([1]; human serum pool, 1 μM): 3.7%
remaining at 4 h, 1 μM ([1]; Table 9, human serum pool, 1 μM, 4 h): < 3.7%
Stability in human serum (undegraded portion/time) [1]: 6%/2 h

Molecule: C[C@@H]1NC(=O)[C@H](Cc2ccc(O)cc2)NC(=O)[C@H](Cc2ccc(O)cc2)NC(=O)[C@H](Cc2c[nH]c3ccccc23)NC(=O)[C@@H](Cc2ccc(O)cc2)NC(=O)CSC[C@@H](C(=O)NCC(N)=O)NC(=O)[C@@H]2CCCN2C(=O)[C@H](Cc2ccccc2)NC(=O)[C@H](C)NC(=O)[C@H](CCCCN)NC(=O)[C@H](Cc2ccc(O)cc2)NC(=O)[C@H]([C@@H](C)O)NC(=O)[C@H](CCC(N)=O)NC(=O)[C@H](CC(=O)O)NC(=O)[C@H](Cc2c[nH]c3ccccc23)NC1=O [Peptide D5-4] ({CH2CO}-[dY]WYYAWDQTYKAFPCG-NH2; thioether N-15)
Kd (c-Met-Fc; Table 10, c-Met-Fc): 4.6 nM
kon (c-Met-Fc; Table 10, c-Met-Fc): 4.5e+06 M⁻¹ s⁻¹
Stability in human serum (undegraded portion/time) [1]: 97%/2 h

Molecule: N9: N-methylated peptide of D4-3 ({CH2CO}-[dY]RQFNRRT[NMeH]EVWNLDC-NH2; thioether N-16; also: bridge 1-16 listed as disulfide) [Peptide N9]
KD (c-Met-Fc; Table 8, c-Met-Fc): Not binding

Molecule: N14: N-methylated peptide of D4-3 ({CH2CO}-[dY]RQFNRRTHEVWN[NMeL]DC-NH2; thioether N-16; also: bridge 1-16 listed as disulfide) [Peptide N14]
Kd (c-Met-Fc; Table 8, c-Met-Fc): 290 nM
ka (c-Met-Fc; Table 8, c-Met-Fc): 0.21 10^5 M^−1s^−1
kd (c-Met-Fc; Table 8, c-Met-Fc): 0.59 10^−2 s^−1

Molecule: N10: N-methylated peptide of D4-3 ({CH2CO}-[dY]RQFNRRTH[NMeE]VWNLDC-NH2; thioether N-16; also: bridge 1-16 listed as disulfide) [Peptide N10]
Kd (c-Met-Fc; Table 8, c-Met-Fc): 300 nM
ka (c-Met-Fc; Table 8, c-Met-Fc): 0.25 10^5 M^−1s^−1
kd (c-Met-Fc; Table 8, c-Met-Fc): 0.75 10^−2 s^−1

Molecule: CC[C@H](C)[C@@H]1NC(=O)[C@H](Cc2ccc(O)cc2)NC(=O)CSC[C@@H](C(=O)NCC(N)=O)NC(=O)[C@H]([C@@H](C)O)NC(=O)[C@H]([C@@H](C)CC)NC(=O)[C@H](Cc2ccccc2)NC(=O)[C@H](CCCNC(=N)N)NC(=O)[C@H](Cc2c[nH]c3ccccc23)NC(=O)[C@H](CC(N)=O)NC(=O)[C@@H]2CCCN2C(=O)[C@H](CO)NC(=O)[C@H](CC(N)=O)NC(=O)[C@H](Cc2ccccc2)NC(=O)[C@H](CCC(=O)O)NC(=O)[C@H](CC(N)=O)NC(=O)[C@H](Cc2c[nH]c3ccccc23)NC(=O)[C@H](CO)NC1=O [Peptide L5-2] ({CH2CO}-YISWNEFNSPNWRFITCG-NH2; thioether N-17)
Kd (c-Met-Fc; Table 10, c-Met-Fc): 5.4 nM
kon (c-Met-Fc; Table 10, c-Met-Fc): 2.3e+06 M⁻¹ s⁻¹
Stability in human serum (undegraded portion/time) [1]: 71%/2 h

Molecule: N5: N-methylated peptide of D4-3 ({CH2CO}-[dY]RQF[NMeN]RRTHEVWNLDC-NH2; thioether N-16; also: bridge 1-16 listed as disulfide) [Peptide N5]
Kd (c-Met-Fc; Table 8, c-Met-Fc): 200 nM
ka (c-Met-Fc; Table 8, c-Met-Fc): 0.19 10^5 M^−1s^−1
kd (c-Met-Fc; Table 8, c-Met-Fc): 0.39 10^−2 s^−1

Molecule: L5-2 Bis-MAL-PEG11: dimeric peptide: two L5-2 macrocycles linked through C-terminal Cys by Bis-MAL-PEG11 linker ({CH2CO}-YISWNEFNSPNWRFITCG[βAla]C-NH2; thioether N-17; not fully specified (residue 20); also: dimer: two copies joined by Bis-MAL-PEG11, linker at 20 via Bis-MAL-PEG11, other end not in the chain)
ka (c-Met-Fc; [2]): 0.098 10^6 M^−1s^−1
kd (c-Met-Fc; [2]): 0.031 10^−2 s^−1
Activity (c-Met phosphorylation level by ELISA) (c-Met): Low
c-Met phosphorylation (c-Met): Promote

Molecule: N3: N-methylated peptide of D4-3 ({CH2CO}-[dY]R[NMeQ]FNRRTHEVWNLDC-NH2; thioether N-16; also: bridge 1-16 listed as disulfide) [Peptide N3]
Kd (c-Met-Fc; Table 8, c-Met-Fc): 120 nM
ka (c-Met-Fc; Table 8, c-Met-Fc): 0.27 10^5 M^−1s^−1
kd (c-Met-Fc; Table 8, c-Met-Fc): 0.31 10^−2 s^−1

Molecule: D4-3 Bis-MAL-PEG3: dimeric peptide: two D4-3 macrocycles linked through C-terminal Cys by Bis-MAL-PEG3 linker ({CH2CO}-[dY]RQFNRRTHEVWNLDCGC; thioether N-16; not fully specified (residue 18); also: dimer: two copies joined by Bis-MAL-PEG3, linker at 18 via Bis-MAL-PEG3, other end not in the chain)
ka (c-Met-Fc; [2]): 1.1 10^6 M^−1s^−1
kd (c-Met-Fc; [2]): 0.070 10^−2 s^−1
Activity (c-Met phosphorylation level by ELISA) (c-Met): Low
c-Met phosphorylation (c-Met): Promote

More lines, now with the values ahead:

kd (c-Met-Fc; Table 8, c-Met-Fc): 0.96 10^−2 s^−1
kon (c-Met-Fc; Table 8, c-Met-Fc): 120000 M⁻¹ s⁻¹
remaining at 1 h, 1 μM ([1]; human serum pool, 1 μM): 21.1%
Molecule: CC(C)C[C@@H]1NC(=O)[C@H](CC(N)=O)NC(=O)[C@H](Cc2c[nH]c3ccccc23)NC(=O)[C@H](C(C)C)NC(=O)[C@H](CCC(=O)O)NC(=O)[C@H](Cc2c[nH]cn2)NC(=O)[C@H]([C@@H](C)O)NC(=O)[C@H](CCCNC(=N)N)NC(=O)[C@H](CCCNC(=N)N)NC(=O)[C@H](CC(N)=O)NC(=O)[C@H](Cc2ccccc2)N(C)C(=O)[C@H](CCC(N)=O)NC(=O)[C@H](CCCNC(=N)N)NC(=O)[C@@H](Cc2ccc(O)cc2)NC(=O)CSC[C@@H](C(=O)NCC(N)=O)NC(=O)[C@H](CC(=O)O)NC1=O [Peptide N4] ({CH2CO}-[dY]RQ[NMeF]NRRTHEVWNLDCG-NH2; thioether N-16; C-terminus assumed)

kon (c-Met-Fc; Table 8, c-Met-Fc): 15000 M⁻¹ s⁻¹
Molecule: CC(C)C[C@@H]1NC(=O)[C@H](CC(N)=O)NC(=O)[C@H](Cc2c[nH]c3ccccc23)NC(=O)[C@H](C(C)C)N(C)C(=O)[C@H](CCC(=O)O)NC(=O)[C@H](Cc2c[nH]cn2)NC(=O)[C@H]([C@@H](C)O)NC(=O)[C@H](CCCNC(=N)N)NC(=O)[C@H](CCCNC(=N)N)NC(=O)[C@H](CC(N)=O)NC(=O)[C@H](Cc2ccccc2)NC(=O)[C@H](CCC(N)=O)NC(=O)[C@H](CCCNC(=N)N)NC(=O)[C@@H](Cc2ccc(O)cc2)NC(=O)CSC[C@@H](C(=O)NCC(N)=O)NC(=O)[C@H](CC(=O)O)NC1=O [Peptide N11] ({CH2CO}-[dY]RQFNRRTHE[NMeV]WNLDCG-NH2; thioether N-16; C-terminus assumed)

kon (c-Met-Fc; Table 8, c-Met-Fc): 300000 M⁻¹ s⁻¹
Molecule: CC(C)C[C@@H]1NC(=O)[C@H](CC(N)=O)NC(=O)[C@H](Cc2c[nH]c3ccccc23)NC(=O)[C@H](C(C)C)NC(=O)[C@H](CCC(=O)O)NC(=O)[C@H](Cc2c[nH]cn2)NC(=O)[C@H]([C@@H](C)O)NC(=O)[C@H](CCCNC(=N)N)NC(=O)[C@H](CCCNC(=N)N)NC(=O)[C@H](CC(N)=O)NC(=O)[C@H](Cc2ccccc2)NC(=O)[C@H](CCC(N)=O)NC(=O)[C@H](CCCNC(=N)N)NC(=O)[C@@H](Cc2ccc(O)cc2)NC(=O)CSC[C@@H](C(=O)NCC(N)=O)NC(=O)[C@H](CC(=O)O)N(C)C1=O [Peptide N15] ({CH2CO}-[dY]RQFNRRTHEVWNL[NMeD]CG-NH2; thioether N-16; C-terminus assumed)

kon (c-Met-Fc; Table 8, c-Met-Fc): 55000 M⁻¹ s⁻¹
Molecule: CC(C)C[C@@H]1NC(=O)[C@H](CC(N)=O)NC(=O)[C@H](Cc2c[nH]c3ccccc23)N(C)C(=O)[C@H](C(C)C)NC(=O)[C@H](CCC(=O)O)NC(=O)[C@H](Cc2c[nH]cn2)NC(=O)[C@H]([C@@H](C)O)NC(=O)[C@H](CCCNC(=N)N)NC(=O)[C@H](CCCNC(=N)N)NC(=O)[C@H](CC(N)=O)NC(=O)[C@H](Cc2ccccc2)NC(=O)[C@H](CCC(N)=O)NC(=O)[C@H](CCCNC(=N)N)NC(=O)[C@@H](Cc2ccc(O)cc2)NC(=O)CSC[C@@H](C(=O)NCC(N)=O)NC(=O)[C@H](CC(=O)O)NC1=O [Peptide N12] ({CH2CO}-[dY]RQFNRRTHEV[NMeW]NLDCG-NH2; thioether N-16; C-terminus assumed)
